Assay results reported in patent US20020055130.

B1: MEKK1 cleavage fragment C (protein)
chain: GHQDSLQAVAPTSCLENSSLEHTVHREKTGKGLSATRLSASSEDISDRLAGVSVGLPSSTTTEQPKPAVQTKGRPHSQCLNSSPLSHAQLMFPAPSAPCSSAPSVPDISKHRPQAFVPCKIPSASPQTQRKFSLQFQRNCSEHRDSDQLSPVFTQSRPPPSSNIHRPKPSRPVPGSTSKLGDATKSSMTLDLGSASRCDDSFGGGGNSGNAVIPSDETVFTPVEDKCRLDVNTELNSSIEDLLEASMPSSDTTVTFKSEVAVLSPEKAENDDTYKDDVNHNQKCKEKMEAEEEEALAIAMAMSASQDALPIVPQLQVENGEDIIIIQQDTPETLPGHTKAKQPYREDAEWLKGQQIGLGAFSSCYQAQDVGTGTLMAVKQVTYVRNTSSEQEEVVEALREEIRMMGHLNHPNIIRMLGATCEKSNYNLFIEWMAGGSVAHLLSKYGAFKESVVINYTEQLLRGLSYLHENQIIHRDVKGANLLIDSTGQRLRIADFGAAARLASKGTGAGEFQGQLLGTIAFMAPEVLRGQQYGRSCDVWSVGCAIIEMACAKPPWNAEKHSNHLALIFKIASATTAPSIPSHLSPGLRDVAVRCLELQPQDRPPSRELLKHPVFRTTW
B2: HA-tagged full length mouse MEKK1 (196 kDa; plasmid MEKK1.cp4, expressed in HEK293 cells) (protein)
chain: MGYPYDVDYASMAAAAGDRASSSGFPGAAAASPEAGGGGGGGGALQGSGAPAAGAAGLLREPGSAGRERADWRRRQLRKVRSVELDQLPEQPLFLAAASPPCPSTSPSPEPADAAAGASRFQPAAGPPPPGAASRCGSHSAELAAARDSGARSPAGAEPPSAAAPSGREMENKETLKGLHKMEDRPEERMIREKLKATCMPAWKHEWLERRNRRGPVVVKPIPIKGDGSEVNNLAAEPQGEGQAGSAAPAPKGRRSPSPGSSPSGRSVKPESPGVRRKRVSPVPFQSGRITPPRRAPSPDGFSPYSPEETSRRVNKVMRARLYLLQQIGPNSFLIGGDSPDNKYRVFIGPQNCSCGRGAFCIHLLFVMLRVFQLEPSDPMLWRKTLKNFEVESLFQKYHSRRSSRIKAPSRNTIQKFVSRMSNSHTLSSSSTSTSSSENSIKDEEEQMCPICLLGMLDEESLTVCEDGCRNKLHHHCMSIWAEECRRNREPLICPLCRSKWRSHDFYSHELSSPVESPASLRAVQQPSSPQQPVAGSQRRNQESSFNLTHFGTQQIPSAYKDLAEPWIQVFGMELVGCLFSRNWNVREMALRRLSHDVSGALLLANGESTGNSGGGSGGSLSAGAASGSSQPSISGDVVEACCSVLSIVCADPVYKVYVAALKTLRAMLVYTPCHSLAERIKLQRLLRPVVDTILVKCADANSRTSQLSISTVLELCKGQAGELAVGREILKAGSIGVGGVDYVLSCILGNQAESNNWQELLGRLCLIDRLLLEFPAEFYPHIVSTDVSQAEPVEIRYKKLLSLLTFALQSIDNSHSMVGKLSRRIYLSSARMVTAVPAVFSKLVTMLNASGSTHFTRMRRRLMAIADEVEIAEVIQLGVEDTVDGHQDSLQAVAPTSCLENSSLEHTVHREKTGKGLSATRLSASSEDISDRLAGVSVGLPSSTTTEQPKPAVQTKGRPHSQCLNSSPLSHAQLMFPAPSAPCSSAPSVPDISKHRPQAFVPCKIPSASPQTQRKFSLQFQRNCSEHRDSDQLSPVFTQSRPPPSSNIHRPKPSRPVPGSTSKLGDATKSSMTLDLGSASRCDDSFGGGGNSGNAVIPSDETVFTPVEDKCRLDVNTELNSSIEDLLEASMPSSDTTVTFKSEVAVLSPEKAENDDTYKDDVNHNQKCKEKMEAEEEEALAIAMAMSASQDALPIVPQLQVENGEDIIIIQQDTPETLPGHTKAKQPYREDAEWLKGQQIGLGAFSSCYQAQDVGTGTLMAVKQVTYVRNTSSEQEEVVEALREEIRMMGHLNHPNIIRMLGATCEKSNYNLFIEWMAGGSVAHLLSKYGAFKESVVINYTEQLLRGLSYLHENQIIHRDVKGANLLIDSTGQRLRIADFGAAARLASKGTGAGEFQGQLLGTIAFMAPEVLRGQQYGRSCDVWSVGCAIIEMACAKPPWNAEKHSNHLALIFKIASATTAPSIPSHLSPGLRDVAVRCLELQPQDRPPSRELLKHPVFRTTW

Target: recombinant kinase inactive SEK1 (SEK1 K→M)

| Protein | phosphorylation of SEK1 K→M by immunoprecipitates (in vitro kinase assay) |
| --- | --- |
| B1 | a stronger SEK1 phosphorylation signal was detected |
| B2 | When the full length MEKK1 protein was immunoprecipitated by the 12CA5 antibody it had measureable autophosphorylation and activity towards SEK1 |
